Assay results from the DeepSol protein solubility set.

Assay: soluble on expression in E. coli; label from the status in PepcDB or PDB records

Sequence | soluble on expression in E. coli
MSEEIKPSAPDAPTASPIVTRDEQNLVVSFLQFIRQKVSQNQATAEQAEALEVAIQCLEHSFGLDDASYAFQPSRPILELFKSAEGLPEGESALPTPSDSDISQANKLKEEGNDLMKASQFEAAVQKYNAAIKLNRDPVYFCNRAAAYCRLEQYDLAIQDCRTALALDPSYSKAWGRMGLAYSCQNRYEHAAEAYKKALELEPNQESYKNNLKIAEDKLKELESSRPAPGANPLAGLLGAMGGGPGGMPAMPGMPNMQNLMNEPGLMQAASQMMSDPALSDMFNNMMSGNGSIADLMAAGQQMAARMQETNPELIENLRRQFGPGADGGAPPPNPPQ | not soluble
MGKKELKRGLVVDREAQMIGVYLFEDGKTYRGIPRGKVLKKTKINAGDYVWGEVVDPNTFAIEEVEERKNLLIRPKVANVDRVIIVETLKMPEFNNYLLDNMLVVYEYFKVEPVIVFNKIDLLNEEEKKELERWIAFTGMRATTFSRLEHHHHHH | not soluble
MGSDKIHHHHHHMKVAYVIGGLPFGGVESWLLDLARHVSKTSDFECRVFNVSGTGVKMPEYISSGVDVVCAGNSLDSIATHRIDTVLRLRSQLVEYAPDIIHTLHFSGDYCGRLASIGLGVPVVTHLRNIKCERKLRRRLANKLLSFFTDMYLSVSRAVADMVADDHNIAKRPSRVIYNAVDPQKLAVEPHDLTAMYGVSGRIVVGVGRYVGQKNFDLLLRALRLVLDEGHDISVVLVGEGGERPHLERLIRELSLEGHAVLTGYRQDVPRFLRASYALAMPSDFEGLPITHLEAMFCGLPAIVSRHVPSLEIAREASLVCKRSPESIAQCIIRLLEDEKLHSTLSNTGSRIASEHTMDLYIKTLKGIYDELASRGKEI | not soluble
MGSDKIHHHHHHMAFQNIQRFQNQDLIRVGNDDNYLLLAPHYGGRLVRWVRHGEEILYWPEAADWSRPAKIRGGNPLLFPFIGRHFADGEAGRWRDANGTTHTLPQHGFARDLPFTVVAADDDKIVMALESSDSTRAGYPYAFRFEASYVMLEDGVEVALRSENTGSDRLPYYAGHHFYFSLPAAHRPDTRLLLPEAVRLRQEPDGRLTHAIQGEPAYALDDDRLQDTFHALRGGGSVTLAMPGRTLAIDLDVPGCVAWHAVTTWTESKDADFYCVEPWLGLPDAIHHGHGLRWLEPGEQETAVCRVRVVA | not soluble
SLSERTFNWKNKDIRAQVDVVDSKLLPTLLLRNALVLNPYVKQWLKKNIWIYQDRIVYVGHELPNRAEEIHTIDCEGKYIVPGYIEPHAHPFQIYNPQTLAEYVSQYGTTTFVNDNLFLLLQSGKKKALTILNELKKQPVQYFWWSRYDLQTEVLNEDHVLPFDVRKQWIEHPDVIQGGEMTGWPRLVDGDDLMLHCMQATKKQRKRIEGHFPGASDKTLTKMKLFGADCDHEAMTGDEVMRRLELGYYVSLRNSSIRPDVRKILQELHEKGFRYYDHFFYTTDGATPNFYKGGMTNELIRIALEEGVPAIDAYNMASFNIAKYYQMDDYLGVVGPGRLASLNILEDPLNPNPVTVLSKGTILRENGCDLKAFTKTDWHKGGLVPLELSYDMTMDDLQFSMPMGVKMRNAVIMEPYMIEIDNSMEQLSFDHDESYLTMLDRHGKWRVNTMIKGFASSVQGFVSSFTTTGDIVAIGKNKADMLLAFARMKEIGGGIVLAENGNILHEIPLALCGCASSEAYEDVLEKEQKLRDLLTERGYEFCDPIYTLLFLQSTHLPYIRITPRGIFDVMKKTVLFPSIMR | soluble
VEPDIRTGTIQDVQHVVILMQENRSFDHYFGHLNGVRGFNDPRALKRQDGKPVWYQNYKYEFSPYHWDTKVTSAQWVSSQNHEWSAFHAIWNQGRNDKWMAVQYPEAMGYFKRGDIPYYYALADAFTLCEAYHQSMMGPTNPNRLYHMSGRAAPSGDGKDVHIGNDMGDGTIGASGTVDWTTYPERLSAAGVDWRVYQEGGYRSSSLWYLYVDAYWKYRLQEQNNYDCNALAWFRNFKNAPRDSDLWQRAMLARGVDQLRKDVQENTLPQVSWIVAPYCYCEHPWWGPSFGEYYVTRVLEALTSNPEVWARTVFILNYDEGDGFYDHASAPVPPWKDGVGLSTVSTAGEIEVSSGLPIGLGHRVPLIAISPWSKGGKVSAEVFDHTSVLRFLERRFGVVEENISPWRRAVCGDLTSLFDFQGAGDTQVAPDLTNVPQSDARKEDAYWQQFYRPSPKYWSYEPKSLPGQEKGQRPTLAVPYQLHATLALDIAAGKLRLTLGNDGMSLPGNPQGHSAAVFQVQPREVGNPRFYTVTSYPVVQESGEELGRTLNDELDDLLDANGRYAFEVHGPNGFFREFHGNLHLAAQMARPEVSVTYQRNGNLQLNIRNLGRLPCSVTVTPNPAYTREGSRRYELEPNQAISEVWLLRSSQGWYDLSVTASNTEANYLRRLAGHVETGKPSRSDPLLDI | not soluble
MGSDKIHHHHHHMDRILTFDCYGTLIDTKPVFDAISNIAKNNILNSKDAVNIYVNYEDRLMYGETYIPYDKLIKQVLEYCDMELVTNVFSKSYDEIISVHKRLKPFKEVVESLEKIHKKGYELALMSNSVHDIIDYNLDALGNVFNNVFLSEDIHAYKPQLKFFKYVEERLELKQKKHCHIAKGYWWDIVPCSKLGWRKIWVNRENKKGNKCHEPYEEVHTLDEVINLI | not soluble
PTLLTARLRWTDKVTLLADPPDKAMGQRSGPWMGEAITALLRAAEREVRLITPYFVPGNDGCDLLTELAQRGVRLSIMTNALSVTDMVLVHGAYRHYRLPLLKAGAELYEFGPPPRPCGRRDLLHTKVFLIDGRQAVVGSLNFDLRSAFMNTELGVLFEEPDLFAELEAMFDRQSAPDEAHRLSLEKGRLRWSVTEEGRAALARFEPDSPPALRAVSWVVGHLPIQ | not soluble
GSAPRVQEELCLVCGDRASGYHYNALTCEGCKGFFRRSVTKSAVYCCKFGRACEMDMYMRRKCQECRLKKCLAVGMRPECVVPENQCAMKRREKKAQKEKDKMTTSPSSQHGSPGIHRD | soluble
MTVDNFRLQVLANHCTAAAEAMGYTLMRTAYSTFVKETEDFSAQLMTPAGKTFASPKTFGATWYTGLDYGRVIAMFDDYREGDIYLTNDPYSGFVATHTPDMHVWKPVFRDGRLVCFVGSHIHNTDMGGAVPASLSRTLTEVHQEGLRIPPMLLARDGVIDEKVLRIMEVNVRMPEQNRGDLNAQIAALNVGERKVHEIIDRFGVDEFMQGAEAILDYAEQQTRALIREIPDGEYRFAEYADEDTVGGYPCRIQITLRVRGDELELDFTGSDPQVASSLNVPTGGDGHHSVITVGLIYVMHTLAPRNVLNAGSVRPCRAVLPEGTVVNPQAPAAVGMRSLMAAVIQACTFGVFSRAMPDRLPACPAGGSTLLNVKTATREGRQVLSSIGPCGGGAGGGPEHDGVEGCGANNAFLKNTPVEINEAEVPIEIIRYGLVPDTGGAGRQRGGNAATMEFRLLAPNGVVTARNRNRSELAAWGVMGGKAGANSRFIRNPDSDAPEELRNSDLVNCAPGDVIRLQGPAGGGYGHPYERPIEQVVED | not soluble
MGSDKIHHHHHHMLNIVVVAHPDDEILGFGATGAKLAAKGEVVQPIILCGSVDARTLRPTDEELHSDMLKANSLVGFSKPVLGDFPNISMNTVPHVELVQFIEEQIKKFRPNRIFTHHPNDLNNDHTQVSNACLAASRLFQRRNDLPALEALYFMEILSSTDWAFPAVGDGFKPTTFVEITCELEKKLAALHHYRNVMRPFPHPRSDEVVTGLAAYRGGQAGLKYAEAFQLVFKQGV | not soluble
RDIKDLIVALDIGTSKVVAVVAEILPEGRFEVLGLGQHESRGMRKGVVVNIETTVNSIQRALEEAELMADCKIRDVYAGIAGSHIRSFNSSGMVAVKDKEVTATDVARVIETAKAVNIPTDQ | not soluble
MNTQFSCVGCGKCCNDHHVPLTLLEARDWAADGGQVIILVEAFLGNGLGLPMQQREHAERRSCRVRSGATEAYVAITFAAYNVGPCRNLDEDQLCRIYQRRPLVCRIYPMEINPHIPLNPQAKECPPESWEQGPQLILGNELVDQELAELIRRSRQADRDDIHTKEAICALLGIRTTALKGDGFTAYLPDMGALANAIDQVQAAPPGAPGQPWRFHLSGDDIAGQVQAAGAQVVSETPLDYAFISLRAALEHHHHHH | soluble
MAKKLFAFLGIGDYKSVEYYFQNKKEGYKTEYIQEAITKLLNEQDLNVTVFVTAEARKKHWEPENNKGLESRLKKLNINCKAVNIPDGKANDDVWKIFTSVYSEIEFNDEIYVDVTHSLRNIPIIFMSVLNYAKVTKNCTIKGIFYGAYEAKENERAPIYDLTLFDQIGEWSSGVEQLLTTGECEMFCSTVEKTLDPLLREAKGKDELIKLVKKCSKLIKEFYTDLKLVRGKSVLEDGRKLYQVLCEIKALNTEKHITMQPFFHILERVENQVAFFQNENLIENILECVKLCKKFGQYQQAYTFLRENIINYVCINTGLDWKKEDPDRLKAEELIGKLYMRKIKKVQIEVSEDIKSILENGEDFICDDAIELFGELIEFRNDLDHAQFRMINPSKDKITCKLDSFIERFEKYYISK | not soluble
MSNTEERCDLSSSRDCPERHEHLLQRVTARAAEIGGGITVSRLMPSRQRRMIGAWCFLDHAGPAEFEPGGGLAVGPHPHIGLQTFTWMIQGEALHRDSLGNVQVIRPGQVNLMTAGHGIAHTEESLPDERHAHAAQLWIALPYEQRDIAPAFDHHPDLPRWQEQGVTFTLLAGALAGRQAPCRLYSPLLGADLACHDASTLQLTLDPHFEYGLLPLEGGLEVGGEHFAVNELAYLGDGRDGLQLQLDPGARVLLLGGAPFGAEIFMWWNFVGHSKGEIARAQKAWEEGDARFGRLDALEGPRLSAPPIPWKIDAE | not soluble
MTLMNTENEPTGMLTIRVSAMPKDANSAYDIFGGWVMAQMDMAAGIRSAERARGRTVTAAVREMAFARPVKIGDTLCVYTDITRVGRTSITLRVEAWAKRYLSDKRDLVTHAEFIMVALDADGKPTPAPQEDLEHHHHHH | not soluble
MERCGWVSQDPLYIAYHDNEWGVPETDSKKLFEMICLEGQQAGLSWITVLKKRENYRACFHQFDPVKVAAMQEEDVERLVQDAGIIRHRGKIQAIIGNARAYLQMEQNGEPFVDFVWSFVNHQPQVTQATTLSEIPTSTSASDALSKALKKRGFKFVGTTICYSFMQACGLVNDHVVGCCCYPGNKP | not soluble
MGSDKIHHHHHHMNLKKVVNEIRNFEGILRKIAIKDVVETFDFNDEDYEFDIIVDFGDDAAVIGIDGDNAILLAADGIWGKLLEADPWWAGYCSVLVNCKDIAAMGGKCVGMTNIISIKDKDICREVLKGVKDGVKKFGVPMVGGHTHPDAMCNVLDVSITGIAKKDCILRSDNAKIGDKIIFAYDLVGQIYKSFPLNWDTTTMKSKKLVRAQMDALVQIAENKLANSCKDISNPGAIGTLGMLLEVSRKGGVVDITKIPKPEEIDLIHWLKVYPGSGYVLTAKEENFKEIKDIFEDVEMTAEICGEVIAEKKLYITDGENKEVVFDFEKEFICGC | not soluble
MAIAPQQIQERLKQEQYQKFVVADIGNFPHCLAQTPEGIASGQRYQKYSTNSLSRTPPFSQWGAPQLLTPKSAQEYIKFAQQRNKKSSFKIDGEAVRVSECSNFAYHSAGVLLDDPQIRTQYDVAVIGSMHSNGRYLHNITLLVPKGSRLPQPPQQLTAEVFPIGTLIVDPWAVGMGHPPEQALAIPKEQFAYNRSLFPATVNYQSALDESLTSTRTGQLTPYTGTPSRTGRQEVRAESQFPGTRRPVSATIPGNFAAYHELWRNAFQEIMNDPRHQLHRNDVEYKKIHAIRTVLDDYTKGGNTWWAKFRRIFTFHWNRHHVKVVDDIVKEIDAGNYTTSRALVDRLDNLAISLGSKLNPKGTLKEQIGFIKIQEQNPVEEIENLSRPNLT | not soluble
